This passage reports Kd results from paper PMC4089491, “BuD, a helix–loop–helix DNA-binding domain for genome modification”.

The target in series [1] is BurrH Variant4 (RAG1) (Burkholderia rhizoxinica) (UniProt E5AV36). The experiment in a line: ITC. As to conditions: FA and ITC: 25 mM HEPES pH 8, 150 mM NaCl, 0.2 mM TCEP, 298 K, SPR: HBS-EP+ (10 mM HEPES pH 7.4, 150 mM NaCl, 3 mM EDTA, 0.05% P20).
In series [2] the target is Variant4 ND (Burkholderia rhizoxinica) (UniProt E5AV36). The experiment in a line: ITC. As to conditions: FA and ITC: 25 mM HEPES pH 8, 150 mM NaCl, 0.2 mM TCEP, 298 K, SPR: HBS-EP+ (10 mM HEPES pH 7.4, 150 mM NaCl, 3 mM EDTA, 0.05% P20).
The next series relates to AvrBs3 TALE. Briefly: SPR. As to conditions: FA and ITC: 25 mM HEPES pH 8, 150 mM NaCl, 0.2 mM TCEP, 298 K, SPR: HBS-EP+ (10 mM HEPES pH 7.4, 150 mM NaCl, 3 mM EDTA, 0.05% P20).
Series [3] concerns the target T1, BurrH (Burkholderia rhizoxinica, UniProt E5AV36 1-771).
T1 sequence: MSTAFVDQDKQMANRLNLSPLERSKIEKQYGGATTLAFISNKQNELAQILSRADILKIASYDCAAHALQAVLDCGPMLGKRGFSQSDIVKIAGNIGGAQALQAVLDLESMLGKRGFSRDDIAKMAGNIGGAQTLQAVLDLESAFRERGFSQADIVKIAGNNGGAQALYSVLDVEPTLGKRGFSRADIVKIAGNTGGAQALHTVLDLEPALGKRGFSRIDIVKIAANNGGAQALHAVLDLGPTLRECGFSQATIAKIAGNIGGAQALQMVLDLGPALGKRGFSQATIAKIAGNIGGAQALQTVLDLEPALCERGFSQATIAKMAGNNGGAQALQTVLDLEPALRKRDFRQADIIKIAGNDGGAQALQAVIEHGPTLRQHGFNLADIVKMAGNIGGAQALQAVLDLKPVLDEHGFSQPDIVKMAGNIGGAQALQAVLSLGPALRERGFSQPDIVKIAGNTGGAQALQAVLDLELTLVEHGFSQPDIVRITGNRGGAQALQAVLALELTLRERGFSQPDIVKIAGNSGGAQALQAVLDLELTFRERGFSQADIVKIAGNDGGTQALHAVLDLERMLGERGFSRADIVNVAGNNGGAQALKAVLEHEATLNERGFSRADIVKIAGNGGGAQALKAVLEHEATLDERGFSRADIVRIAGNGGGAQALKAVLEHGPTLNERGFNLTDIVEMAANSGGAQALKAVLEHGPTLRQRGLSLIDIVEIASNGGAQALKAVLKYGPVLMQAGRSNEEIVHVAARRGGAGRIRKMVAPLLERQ
Briefly: SPR. As to conditions: FA and ITC: 25 mM HEPES pH 8, 150 mM NaCl, 0.2 mM TCEP, 298 K, SPR: HBS-EP+ (10 mM HEPES pH 7.4, 150 mM NaCl, 3 mM EDTA, 0.05% P20).

Series [4] concerns the target Variant1 ND (Burkholderia rhizoxinica) (UniProt E5AV36). Briefly: ITC. The following applies: FA and ITC: 25 mM HEPES pH 8, 150 mM NaCl, 0.2 mM TCEP, 298 K, SPR: HBS-EP+ (10 mM HEPES pH 7.4, 150 mM NaCl, 3 mM EDTA, 0.05% P20).
The target in series [5] is BurrH Variant1 (CAPNS1) (Burkholderia rhizoxinica) (UniProt E5AV36). Briefly: ITC. The following applies: FA and ITC: 25 mM HEPES pH 8, 150 mM NaCl, 0.2 mM TCEP, 298 K, SPR: HBS-EP+ (10 mM HEPES pH 7.4, 150 mM NaCl, 3 mM EDTA, 0.05% P20).
Series [6] concerns the target Variant2 ND (Burkholderia rhizoxinica) (UniProt E5AV36). Briefly: ITC. As to conditions: FA and ITC: 25 mM HEPES pH 8, 150 mM NaCl, 0.2 mM TCEP, 298 K, SPR: HBS-EP+ (10 mM HEPES pH 7.4, 150 mM NaCl, 3 mM EDTA, 0.05% P20).
Series [7] concerns the target BurrH Variant2 (CAPNS1) (Burkholderia rhizoxinica) (UniProt E5AV36). Briefly: ITC. The following applies: FA and ITC: 25 mM HEPES pH 8, 150 mM NaCl, 0.2 mM TCEP, 298 K, SPR: HBS-EP+ (10 mM HEPES pH 7.4, 150 mM NaCl, 3 mM EDTA, 0.05% P20).
Series [8] deals with BurrH Variant3 (RAG1) (Burkholderia rhizoxinica) (UniProt E5AV36). The experiment in a line: ITC. The following applies: FA and ITC: 25 mM HEPES pH 8, 150 mM NaCl, 0.2 mM TCEP, 298 K, SPR: HBS-EP+ (10 mM HEPES pH 7.4, 150 mM NaCl, 3 mM EDTA, 0.05% P20).
For series [9], the target named is Variant3 ND (Burkholderia rhizoxinica) (UniProt E5AV36). Briefly: ITC. As to conditions: FA and ITC: 25 mM HEPES pH 8, 150 mM NaCl, 0.2 mM TCEP, 298 K, SPR: HBS-EP+ (10 mM HEPES pH 7.4, 150 mM NaCl, 3 mM EDTA, 0.05% P20).
Series [10] concerns the target T1, BurrH. The experiment in a line: fluorescence anisotropy; FA and ITC: 25 mM HEPES pH 8, 150 mM NaCl, 0.2 mM TCEP, 298 K; SPR: HBS-EP+ (10 mM HEPES pH 7.4, 150 mM NaCl, 3 mM EDTA, 0.05% P20), 298 K. The following applies: protein: recombinant; label: 5' 6-FAM. Background: In fluorescence polarisation assays a small probe gives low polarisation when free and higher when bound to something large.

The target of series [11] is T1, BurrH. Briefly: ITC; FA and ITC: 25 mM HEPES pH 8, 150 mM NaCl, 0.2 mM TCEP, 298 K; SPR: HBS-EP+ (10 mM HEPES pH 7.4, 150 mM NaCl, 3 mM EDTA, 0.05% P20), 298 K. As to conditions: protein: recombinant. For orientation: ITC needs no label: the signal is the heat of the interaction.

Usually Kd stands for the equilibrium constant for the complex coming apart. For the molecule “TTGTATATATTTAAGCACTTATA (double strand) [V4 target]”, the Kd in series [1] came to 12 nM; in [2], 14 nM. BurrH target, SPR duplex: the equilibrium dissociation constant (Kd) in the series on AvrBs3 TALE stood at 1000 nM; with BurrH [3] it was 0.36 nM. Turning to “TTGGCTCTGTGGGCTCGGGTCTA (double strand) [V1 target]”, the Kd in [4] and in series [5] was 29 nM each time. As to “TTTTGTCCGGGAACCCAGAGCTA (double strand) [V2 target]”, the Kd in [6] worked out at 215 nM; in series [7], 149 nM. AvrBs3 target, SPR duplex registered an equilibrium dissociation constant (Kd) in the series with AvrBs3 TALE of 0.22 nM.

For the molecule “TTCAGTGTTTATGGTTACTTATA (double strand) [V3 target]”, the Kd in [8] amounted to 30 nM; in series [9] it was 26 nM.

B1: FA duplex 14 (C4 C12 C13) (dsDNA)
DNA 1: TTAAGCGAAGCAACCACGTTATA
DNA 2: TATAACGTGGTTGCTTCGCTTAA
With B1, the Kd with BurrH [10] came to 47 ± 5 nM.

B2: FA duplex 13 (A4 A12 C13) (dsDNA)
DNA 1: TTAAGAGAAGCAAACACGTTATA
DNA 2: TATAACGTGTTTGCTTCTCTTAA
Turning to B2, in the series with BurrH [10], the dissociation constant Kd turned out to be 39 ± 10 nM.

B3: FA duplex 9 (A4 A12 G13) (dsDNA)
DNA 1: TTAAGAGAAGCAAAGACGTTATA
DNA 2: TATAACGTCTTTGCTTCTCTTAA
For B3, in the series with BurrH [10], the dissociation constant Kd stood at 35 ± 6 nM.

B4: BurrH target G0 (dsDNA)
DNA 1: TGAAGAGAAGCAAATACGTTATA
DNA 2: TATAACGTATTTGCTTCTCTTCA
As to B4, in the series with BurrH [11], the Kd came out at 24 ± 6.3 nM.

B5: FA duplex 11 (G4 G12 G13) (dsDNA)
DNA 1: TTAAGGGAAGCAAGGACGTTATA
DNA 2: TATAACGTCCTTGCTTCCCTTAA
On to B5, for which, in the series with BurrH [10], the Kd is 90 ± 12 nM.

B6: FA duplex 4 (T4 T12 A13) (dsDNA)
DNA 1: TTAAGTGAAGCAATAACGTTATA
DNA 2: TATAACGTTATTGCTTCACTTAA
For B6, the Kd with BurrH [10] was 61 ± 8 nM.

B7: BurrH RNA target/DNA hybrid (DNA:RNA)
RNA: UUAAGAGAAGCAAAUACGUUAUA
DNA: TATAACGTATTTGCAACTCTTAA
For the molecule B7, the dissociation constant Kd in the series with BurrH [11] (blunt) was found to be 1890 ± 438 nM.

B8: BurrH target A0 (dsDNA)
DNA 1: TAAAGAGAAGCAAATACGTTATA
DNA 2: TATAACGTATTTGCTTCTCTTTA
For B8, the equilibrium dissociation constant (Kd) with BurrH [11] is 15 ± 2.8 nM.

B9: BurrH target C0 (dsDNA)
DNA 1: TCAAGAGAAGCAAATACGTTATA
DNA 2: TATAACGTATTTGCTTCTCTTGA
In the case of B9, the Kd with BurrH [11] stood at 15 ± 3.2 nM.

B10: FA duplex 10 (C4 C12 G13) (dsDNA)
DNA 1: TTAAGCGAAGCAACGACGTTATA
DNA 2: TATAACGTCGTTGCTTCGCTTAA
For B10, the dissociation constant Kd in the series with BurrH [10] came out at 49 ± 10 nM.

B11: FA duplex 2 (C4 C12 A13) (dsDNA)
DNA 1: TTAAGCGAAGCAACAACGTTATA
DNA 2: TATAACGTTGTTGCTTCGCTTAA
Consider B11, for which the dissociation constant Kd with BurrH [10] was 44 ± 9 nM.

B12: FA duplex 15 (G4 G12 C13) (dsDNA)
DNA 1: TTAAGGGAAGCAAGCACGTTATA
DNA 2: TATAACGTGCTTGCTTCCCTTAA
Regarding B12, the Kd with BurrH [10] came out at 59 ± 6 nM.

B13: FA duplex 5 (A4 A12 T13) (dsDNA)
DNA 1: TTAAGAGAAGCAAATACGTTATA
DNA 2: TATAACGTATTTGCTTCTCTTAA
B13: in the series with BurrH [10], the Kd was determined as 32 ± 7 nM.

B14: FA duplex 7 (G4 G12 T13) (dsDNA)
DNA 1: TTAAGGGAAGCAAGTACGTTATA
DNA 2: TATAACGTACTTGCTTCCCTTAA
Turning to B14, in the series with BurrH [10], the Kd turned out to be 42 ± 7 nM.

B15: FA duplex 3 (G4 G12 A13) (dsDNA)
DNA 1: TTAAGGGAAGCAAGAACGTTATA
DNA 2: TATAACGTTCTTGCTTCCCTTAA
Regarding B15, in the series with BurrH [10], the Kd came to 81 ± 12 nM.

B16: BurrH DNA target duplex (dsDNA)
DNA 1: TTAAGAGAAGCAAATACGTTATA
DNA 2: TATAACGTATTTGCTTCTCTTAA
With B16, the Kd with BurrH [11] stood at 25 ± 4.3 nM.

B17: FA duplex 6 (C4 C12 T13) (dsDNA)
DNA 1: TTAAGCGAAGCAACTACGTTATA
DNA 2: TATAACGTAGTTGCTTCGCTTAA
As for B17, the Kd in the series with BurrH [10] was determined as 43 ± 10 nM.

B18: BurrH DNA target/RNA hybrid (DNA:RNA)
DNA: TTAAGAGAAGCAAATACGTTATA
RNA: UAUAACGUAUUUGCAACUCUUAA
Regarding B18, the Kd with BurrH [11] (blunt) stood at 56 ± 6.5 nM.

B19: FA duplex 12 (T4 T12 G13) (dsDNA)
DNA 1: TTAAGTGAAGCAATGACGTTATA
DNA 2: TATAACGTCATTGCTTCACTTAA
Consider B19, for which the Kd with BurrH [10] was 63 ± 5 nM.

B20: FA duplex 1 (A4 A12 A13) (dsDNA)
DNA 1: TTAAGAGAAGCAAAAACGTTATA
DNA 2: TATAACGTTTTTGCTTCTCTTAA
B20: the Kd with BurrH [10] was found to be 40 ± 3 nM.
